Measurements as given in doi:10.1101/2023.01.09.523336.

Target: Cyanophycin synthetase 1 (CphA1) from Tatumella morbirosei DSM 23827 (Tatumella morbirosei DSM 23827)
Assay: SEC

Cyanophycin synthetase 1 (CphA1) from Tatumella morbirosei DSM 23827 (enzyme)
stoichiometry N: 4
